From PMC2668795

Molecular target: syntaxin1 (mouse (endogenous in brain synaptosomes)) (UniProt O35526)
Experiment: co-IP; synaptosomes from wt, ASMko (7 months; also 1 month) or wt+Se mice, equal protein; 150 mM NaCl, 0.5% sodium deoxycholate, 1% NP40; syntaxin1 monoclonal antibody 4 h at 4°C, protein G sepharose beads overnight at 4°C; Western blot for syntaxin1, Munc18, SNAP25 and Vamp2

Sequence of UniProt O35526 (O35526 whole entry): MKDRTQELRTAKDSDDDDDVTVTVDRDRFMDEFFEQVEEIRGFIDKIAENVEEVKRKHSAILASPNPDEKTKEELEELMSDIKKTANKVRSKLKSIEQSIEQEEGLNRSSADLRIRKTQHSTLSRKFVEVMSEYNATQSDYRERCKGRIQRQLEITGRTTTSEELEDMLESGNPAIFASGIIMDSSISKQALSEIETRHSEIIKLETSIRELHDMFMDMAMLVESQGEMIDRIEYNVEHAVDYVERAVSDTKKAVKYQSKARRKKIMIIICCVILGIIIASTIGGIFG

## Munc18 (from UniProt O08599 1-594) (natural protein)
  fold change of Munc18 co-precipitated with syntaxin1, ASMko versus wt synaptosomes: 1.9 fold
